Assay results taken from patent publication US20090220470A1.

What was measured:
[1] = target: K63 tetra-ubiquitin (Boston Biochem) (UniProt P0CG48); assay: SPR (BiaCore 3000), dissociation phase fitted with a double exponential, second (slow) phase
[2] = target: K48 tetra-ubiquitin (Boston Biochem) (UniProt P0CG48); assay: as above
[3] = target: K63 tetra-ubiquitin (Boston Biochem) (UniProt P0CG48); assay: ratio of the literature Kd of the single UBA (Raasi et al.) to the SPR Kd of the TUBE
[4] = target: K48 tetra-ubiquitin (Boston Biochem) (UniProt P0CG48); assay: as above
[5] = target: Mono-ubiquitin (Sigma Aldrich) (UniProt P0CG48); assay: SPR (BiaCore 3000), captured via GST on anti-GST chip, mono-ubiquitin injected, steady state
[6] = target: K63 tetra-ubiquitin (Boston Biochem) (UniProt P0CG48); assay: SPR (BiaCore 3000), GST-TUBE captured on anti-GST chip at low density, tetra-ubiquitin injected, steady-state fit
[7] = target: K48 tetra-ubiquitin (Boston Biochem) (UniProt P0CG48); assay: as above
[8] = target: K63 tetra-ubiquitin (Boston Biochem) (UniProt P0CG48); assay: SPR (BiaCore 3000), dissociation followed over two hours (data not shown)
[9] = target: K48 tetra-ubiquitin (Boston Biochem) (UniProt P0CG48); assay: as above
[10] = target: Mono-ubiquitin (Sigma Aldrich) (UniProt P0CG48); assay: SPR (Biacore), GST fusion captured on anti-GST antibody chip (150-220 RU), mono-ubiquitin injected in a 2-fold dilution series, steady-state fit
[11] = target: poly-ubiquitylated proteins (of cell lysates); assay: cell-based or functional assay
[12] = target: K63 tetra-ubiquitin (Boston Biochem) (UniProt P0CG48); assay: SPR (BiaCore 3000), dissociation phase fitted with a double exponential, first (rapid) phase
[13] = target: K48 tetra-ubiquitin (Boston Biochem) (UniProt P0CG48); assay: as above
[14] = target: Mono-ubiquitin (Sigma Aldrich) (UniProt P0CG48); assay: SPR (BIACORE 3000), GST-p62 UBA polypeptide captured on anti-GST chip, ubiquitin injected
[15] = target: Mono-ubiquitin (Sigma Aldrich) (UniProt P0CG48); assay: SPR (BIACORE 3000), GST-p62 UBA polypeptide captured on anti-GST antibody chip, ubiquitin injected

Sequence of hHR23A TUBE (TUBE comprising 4 hHR23a UBA-1 domains, GST fusion with His6 and SV5 tags) (designed binder) (chain, part): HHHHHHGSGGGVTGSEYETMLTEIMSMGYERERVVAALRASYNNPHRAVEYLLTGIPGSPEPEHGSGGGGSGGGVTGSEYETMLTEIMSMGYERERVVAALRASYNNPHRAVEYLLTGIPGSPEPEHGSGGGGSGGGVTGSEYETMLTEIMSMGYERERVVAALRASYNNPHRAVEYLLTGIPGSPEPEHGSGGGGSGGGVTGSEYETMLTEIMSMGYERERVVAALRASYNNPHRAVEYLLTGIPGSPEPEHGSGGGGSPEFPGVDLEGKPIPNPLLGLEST
Sequence of Ubiquilin1 TUBE (TUBE comprising 4 ubiquilin-1 UBA domains, GST fusion with His6 and SV5 tags) (designed binder) (chain, part): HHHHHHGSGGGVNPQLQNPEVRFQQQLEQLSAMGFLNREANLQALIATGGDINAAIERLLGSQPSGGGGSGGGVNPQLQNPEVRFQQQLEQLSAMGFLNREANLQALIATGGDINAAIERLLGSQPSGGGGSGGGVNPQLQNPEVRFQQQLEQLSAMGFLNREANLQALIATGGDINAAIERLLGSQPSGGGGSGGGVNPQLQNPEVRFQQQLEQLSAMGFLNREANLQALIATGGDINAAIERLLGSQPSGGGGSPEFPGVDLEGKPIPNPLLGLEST

| koff [1] | koff [2] | Kd(UBA)/Kd(TUBE) [3] | Kd(UBA)/Kd(TUBE) [4] | binding stoichiometry (molar ratio ubiquitin:TUBE) (ubiquitin per TUBE) [5] | Kd [6] | Kd [7] | half-life [8] | half-life [9] | Kd [10] | lowest TUBE concentration at which protection from de-ubiquitylation was detectable [11] | koff [12] | t1/2 (first dissociation phase) [12] | koff [13] | t1/2 (first dissociation phase) [13] | fold more binding (against one UBA copy) [14] | N (stoichiometry of Ubiquitin-UBA interaction) [15] | Substance |
| --- | --- | --- | --- | --- | --- | --- | --- | --- | --- | --- | --- | --- | --- | --- | --- | --- | --- |
| 0.0004 s⁻¹ | 0.0004 s⁻¹ | 943 fold | 663 fold | 4 | 4.88 nM | 9.35 nM | > 5 h | > 5 h | 65.8 µM | 0.17 µM | 0.03 s⁻¹ | 25 s | 0.03 s⁻¹ | 25 s |  |  | hHR23A TUBE (TUBE comprising 4 hHR23a UBA-1 domains, GST fusion with His6 and SV5 tags) (designed binder) |
|  |  |  |  |  |  |  |  |  |  |  |  |  |  |  | 6 fold | 5.8 | p62×4 (four domains of the p62-UBA fused to GST; TUBE comprising 4 p62 UBA domains) (designed binder) |
| 0.0004 s⁻¹ | 0.0004 s⁻¹ | 833 fold | 84 fold | 4 | 0.6 nM | 14.3 nM | > 5 h | > 5 h | 30.2 µM | 0.17 µM | 0.03 s⁻¹ | 25 s | 0.03 s⁻¹ | 25 s |  |  | Ubiquilin1 TUBE (TUBE comprising 4 ubiquilin-1 UBA domains, GST fusion with His6 and SV5 tags) (designed binder) |
